Measurements published in paper PMC5397184 (Nucleic Acids Research, 2017).
Positions count from the first letter of the chain named. In names and notes the source's numbering stands.

Columns and labels:
[1] = target: T1, E. coli β sliding clamp (wild type, His-tagged) (E. coli, UniProt P0A988 1-366); experiment: crystal structure
crystal structure = target: the molecule itself; experiment: crystal structure
[2] = target: T1, E. coli β sliding clamp (wild type, …); experiment: SEC-MALS

T1 sequence (P0A988 whole entry): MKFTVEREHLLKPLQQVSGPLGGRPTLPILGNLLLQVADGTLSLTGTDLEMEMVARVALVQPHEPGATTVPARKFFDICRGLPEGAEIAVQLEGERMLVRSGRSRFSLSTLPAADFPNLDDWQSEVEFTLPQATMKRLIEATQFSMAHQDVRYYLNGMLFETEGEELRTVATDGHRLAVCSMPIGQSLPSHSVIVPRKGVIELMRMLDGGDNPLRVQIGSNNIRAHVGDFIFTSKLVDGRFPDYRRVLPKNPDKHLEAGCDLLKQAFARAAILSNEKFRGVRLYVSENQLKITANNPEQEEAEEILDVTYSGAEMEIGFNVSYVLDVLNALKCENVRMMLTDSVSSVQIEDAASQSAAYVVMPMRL

B1: E. coli Hda (full-length, wild type) (natural protein)
chain: MNTPAQLSLPLYLPDDETFASFWPGDNSSLLAALQNVLRQEHSGYIYLWAREGAGRSHLLHAACAELSQRGDAVGYVPLDKRTWFVPEVLDGMEHLSLVCIDNIECIAGDELWEMAIFDLYNRILESGKTRLLITGDRPPRQLNLGLPDLASRLDWGQIYKLQPLSDEDKLQALQLRARLRGFELPEDVGRFLLKRLDREMRTLFMTLDQLDRASITAQRKLTIPFVKEILKL
[1]
  binding result: binds
Crystal structure
  binding result: binds

B2: E. coli Hda hook mutant (K81S, W84S, F85S) (natural protein)
chain: B1 chain with K81S, W84S, F85S
[2]
  binding result: binds

B3: E. coli Hda W156A (natural protein)
chain: B1 chain with W156A
[2]
  binding result: binds
